In US20140275490A1 (Astellas, published 2014):

T1: human IL-23R-mouse Fc fusion protein (human; mouse, UniProt Q5VWK5 24-353)
T1 construct: Expressed in FreeStyle 293 cells, purified; immobilized on the ELISA plate at 500 ng/mL; also called human IL-23R-Fc fusion protein; not shown: Fc region of mouse immunoglobulin (IgG2a) as encoded by the vector pFUSE-mIgG2A-Fc2 (InvivoGen); limits and any linker r
T1 sequence: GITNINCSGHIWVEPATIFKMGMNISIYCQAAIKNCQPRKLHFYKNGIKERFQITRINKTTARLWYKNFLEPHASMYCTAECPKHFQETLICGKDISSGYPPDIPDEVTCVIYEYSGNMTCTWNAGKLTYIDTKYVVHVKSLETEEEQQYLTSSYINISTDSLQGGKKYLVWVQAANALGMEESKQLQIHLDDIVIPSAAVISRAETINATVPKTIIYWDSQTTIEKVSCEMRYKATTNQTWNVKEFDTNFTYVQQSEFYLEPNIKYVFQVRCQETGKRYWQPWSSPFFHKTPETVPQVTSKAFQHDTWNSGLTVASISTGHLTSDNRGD


Experiments:
[1] = molecular target: T1, human IL-23R-mouse Fc fusion protein; test: antigen ELISA, human IL-23R-Fc immobilized, HRP anti-mouse Ig, chemiluminescence
Description: (§1) The present inventors used an antigen ELISA to measure the antigen-specific binding activity of the antibody. The human or monkey IL-23R-Fc fusion protein was immobilized onto a Maxisorp 384-well plate (Nunc, Inc.) at a concentration of 500 ng/mL. A blocking agent (Blocking One; Nacalai Tesque, Inc.) was added thereto and allowed to stand at room temperature for 1 hour, followed by washing twice with a wash buffer [TPBS: a phosphate buffered saline (PBS) containing 0.05% Tween-20], and the purified antibody samples were suitably serially diluted and added thereto. Incubation was performed at room temperature for 1 hour, followed by washing four times with TPBS, and HRP-rabbit anti-mouse Ig antibody (DAKO) which was 2000-fold diluted with a dilution buffer was added. Incubation was performed at room temperature for 1 hour, followed by washing four times with a wash buffer. A BM-chemiluminescence ELISA substrate (POD) (Roche Diagnostics), which is a reagent for detecting chemical luminescence, was added, and the amount of chemiluminescence was measured with an EnVision counter (Perkin Elmer). Each antibody was tested in duplicate and the EC50 was analyzed by curve fitting. In this test, a fusion antibody obtained by replacing the Fc region of the known humanized anti-human IL-23R antibody hum20D7 (patent document 1) with the mouse Fc region (hereinafter referred to as hum20D7-mFc) was used as a comparative antibody. Also, the reason why the hum20D7 was fused with the mouse Fc region to prepare a fusion protein was to use anti-mouse Ig antibody as secondary antibody, and the mouse Fc region could be recognized by the anti-mouse Ig antibody, thereby rendering it possible to measure activity.

[2] = molecular target: T2, monkey IL-23R-mouse Fc fusion protein (monkey; mouse); test: antigen ELISA, monkey IL-23R-Fc immobilized, HRP anti-mouse Ig, chemiluminescence
T2 construct: extracellular domain; also called monkey IL-23R-Fc fusion protein
Description: as §1

EC50 [1] [µg/mL] | EC50 [2] [µg/mL] | Binder
0.023 | 0.028 | 32-36 (chimeric) (antibody, V domains shown) VH: QVQMVQSGAEVKRPGASVKVSCKVSGYTLNELGIHWVRQAPGKGLEWMGGFDPEHGKIIYAQRFQGRLTMPEDTSTDTAYMELSSLTSEDTAVYYCATVAAPLDYWGQGTLVTVSS VL: not shown
0.017 | 0.013 | 34-58 (chimeric) (antibody, V domains shown) VH: QVHLVQSGTEVRKPGASVKVSCKVSGYTLNELAIHWVRQAPGKGLEWMGGFDPEHGEIIYAQRFQGRITLPEDTSTDTAYMDLVNLRSEDTAVYFCTTEAAPFDYWGQGSLVIVSS VL: DIQMTQSPSTLSASVGDRVTITCRASQSLSNWLAWYQQKPGKAPKLLIYKASSLESGVPSRFSGSGSGTDFTLTISGLQPDDFATYYCQQYDIYPRTFGQGTKVEIKR
